Consider two molecules from patent US20160033523A1 (NOVOZYMES BIOPHARMA DK A S, published 2016).

Experiment [1] concerns the target T1, Wild type cynomolgus macaque serum albumin (cynomolgus macaque, UniProt A2V9Z4 24-608).
T1 construct: also called CSA; native cyno albumin
The experiment in a line: SPR, albumin over immobilized His-FcRn, pH 5.5, 1:1 Langmuir. The method, then:
(§1) SPR experiments were carried out using a Biacore 3000 instrument (GE Healthcare). Flow cells of CM5 sensor chips were coupled with soluble FcRn from one of the following species, human (shFcRn), rat (srFcRn), mouse (smFcRn), rhesus monkey (srmFcRn), dog (dFcRn) or pig (pFcRn) (˜900-2500 resonance units (RU)) using GE Healthcare amine coupling chemistry as per the manufacturer's instructions. The coupling was performed by injecting 2 or 10 μg/ml FcRn in 10 mM sodium acetate pH 5.0 (GE healthcare). Phosphate buffer (67 mM phosphate buffer, 0.15 M NaCl, 0.005% Tween 20) at pH 6.0) was used as running buffer and dilution buffer. Regeneration of the surfaces were done using injections of HBS-EP buffer (0.01 M HEPES, 0.15 M NaCl, 3 mM EDTA, 0.005% surfactant P20) at pH 7.4 (GE Healthcare). For determination of binding kinetics, serial dilutions of albumin (10-0.3 μM) were injected over immobilized receptors at a constant flow rate (50 μl/min) at 25° C. In all experiments, data were zero adjusted and the reference cell subtracted.
The SPR assay was conducted with the following variations to the assay described in the Materials and Method section:
The soluble FcRn receptors were synthesized by GeneArt and expressed in HEK cells. The soluble FcRn contained a HIS-tag on the C-terminal of the Beta-chain instead of a GST on the heavy chain and the beta-chain used was the native beta-chain of the animal (see Materials and Method section for the corresponding sequences). The soluble FcRn was purified by a HIS trap column followed by an additional purification using an IgG column. The soluble FcRn receptor was diluted to 20 μg/mL. The phosphate buffer used as running buffer in the SPR assay was at pH 5.5 instead of pH 6.0. […] 1:1 Langmuir or Steady state model was used.
(In general: Surface plasmon resonance follows binding to a sensor surface in real time, without labels.)

In experiment [2] the target is T2, Soluble mouse FcRn, GST-tagged, with human beta2-microglobulin (mouse; Schistosoma japonicum; human, UniProt P08515 1-218 = GST).
T2 construct: also called smFcRn
Nature of the experiment: SPR, albumin over immobilized GST-FcRn, pH 6.0, steady state. The method, then: as §1

The target in experiment [3] is T3, Soluble rat FcRn, GST-tagged, with human beta2-microglobulin (rat; Schistosoma japonicum; human, UniProt P08515 1-218 = GST).
T3 construct: also called srFcRn
The description is as above. Here is the method:
as §1

Experiment [4] concerns the target T2, Soluble mouse FcRn, GST-tagged, with …. Nature of the experiment: SPR, albumin over immobilized GST-FcRn, pH 6.0, 1:1 model. Here is the method:
as §1

The target of experiment [5] is T4, Soluble rhesus monkey FcRn, GST-tagged, with human beta2-microglobulin (rhesus monkey; Schistosoma japonicum; …, UniProt P08515 1-218 = GST).
T4 construct: also called srmFcRn; soluble rhesus macaque FcRn
The description is as above. Here is the method: as §1

The target in experiment [6] is T3, Soluble rat FcRn, GST-tagged, with …. The description is as above. The method, then: as §1
In experiment [7] the target is T5, Soluble dog FcRn, GST-tagged, with human beta2-microglobulin (dog; Schistosoma japonicum; human, UniProt P08515 1-218 = GST).
T5 construct: also called dFcRn
Described as above. The method, then: as §1

In experiment [8] the target is T6, Soluble pig FcRn, GST-tagged, with human beta2-microglobulin (Example 2) (pig; Schistosoma japonicum; human, UniProt P08515 1-218 = GST).
T6 construct: also called pFcRn; spFcRn
Described as above. Here is the method: as §1

T1 sequence (A2V9Z4 24-608): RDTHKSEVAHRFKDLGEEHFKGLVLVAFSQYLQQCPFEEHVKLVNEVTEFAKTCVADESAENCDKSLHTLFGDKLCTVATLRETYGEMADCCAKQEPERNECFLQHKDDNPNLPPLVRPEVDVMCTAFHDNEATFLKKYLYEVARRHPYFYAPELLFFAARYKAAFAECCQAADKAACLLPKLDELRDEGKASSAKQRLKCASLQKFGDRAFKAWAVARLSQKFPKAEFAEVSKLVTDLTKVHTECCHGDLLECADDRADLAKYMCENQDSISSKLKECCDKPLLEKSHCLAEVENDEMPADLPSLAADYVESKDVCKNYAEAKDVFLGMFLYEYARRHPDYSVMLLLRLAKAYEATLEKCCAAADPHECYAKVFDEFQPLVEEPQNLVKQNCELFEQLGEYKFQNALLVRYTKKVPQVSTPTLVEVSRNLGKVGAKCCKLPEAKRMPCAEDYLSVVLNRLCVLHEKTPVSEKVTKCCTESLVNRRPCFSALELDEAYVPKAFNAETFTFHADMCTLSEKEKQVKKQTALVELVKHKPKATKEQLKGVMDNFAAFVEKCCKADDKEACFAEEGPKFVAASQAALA

B1: Soluble cynomolgus macaque FcRn with cynomolgus beta2-microglobulin, HIS-tagged (receptor)
chain: AESHLSLLYHLTAVSSPAPGTPAFWVSGWLGPQQYLSYDSLRGQAEPCGAWVWENQVSWYWEKETTDLRIKEKLFLEAFKALGGKGPYTLQGLLGCELSPDNTSVPTAKFALNGEEFMNFDLKQGTWGGDWPEALAISQRWQQQDKAANKELTFLLFSCPHRLREHLERGRGNLEWKEPPSMRLKARPGNPGFSVLTCSAFSFYPPELQLRFLRNGMAAGTGQGDFGPNSDGSFHASSSLTVKSGDEHHYCCIVQHAGLAQPLRVELETPAKSS
b2m: IQRTPKIQVYSRHPPENGKPNFLNCYVSGFHPSDIEVDLLKNGEKMGKVEHSDLSFSKDWSFYLLYYTEFTPNEKDEYACRVNHVTLSGPRTVKWDRDM
notes: Synthesized by GeneArt, expressed in HEK cells; also called CynoFcRn; Cyno FcRn; not shown: HIS-tag on the C-terminal of the beta-chain
For the molecule B1, the Kd in experiment [1] was 35 µM.

B2: Wild type rat serum albumin (ligand)
chain: EAHKSEIAHRFKDLGEQHFKGLVLIAFSQYLQKCPYEEHIKLVQEVTDFAKTCVADENAENCDKSIHTLFGDKLCAIPKLRDNYGELADCCAKQEPERNECFLQHKDDNPNLPPFQRPEAEAMCTSFQENPTSFLGHYLHEVARRHPYFYAPELLYYAEKYNEVLTQCCTESDKAACLTPKLDAVKEKALVAAVRQRMKCSSMQRFGERAFKAWAVARMSQRFPNAEFAEITKLATDVTKINKECCHGDLLECADDRAELAKYMCENQATISSKLQACCDKPVLQKSQCLAEIEHDNIPADLPSIAADFVEDKEVCKNYAEAKDVFLGTFLYEYSRRHPDYSVSLLLRLAKKYEATLEKCCAEGDPPACYGTVLAEFQPLVEEPKNLVKTNCELYEKLGEYGFQNAVLVRYTQKAPQVSTPTLVEAARNLGRVGTKCCTLPEAQRLPCVEDYLSAILNRLCVLHEKTPVSEKVTKCCSGSLVERRPCFSALTVDETYVPKEFKAETFTFHSDICTLPDKEKQIKKQTALAELVKHKPKATEDQLKTVMGDFAQFVDKCCKAADKDNCFATEGPNLVARSKEALA
notes: also called RSA; RSA Wt
With B2, the equilibrium dissociation constant (Kd) in experiment [2] stood at 2.6 µM; in experiment [3], 4.1 µM; in experiment [4], 2.6 µM; in experiment [5], 2.2 µM; in experiment [6], 3.2 µM; in experiment [7], 5.8 µM. The molecule also showed a Kd in experiment [8] of 6.4 µM. Further, the koff in experiment [4] was 0.0341 s⁻¹; in experiment [5] it was 0.0101 s⁻¹; in experiment [6], 0.026 s⁻¹; in experiment [7], 0.048 s⁻¹; in experiment [8], 0.071 s⁻¹. For the same molecule, the on-rate (kon) in experiment [4] came out at 13000 M⁻¹ s⁻¹; in experiment [5] it was 4500 M⁻¹ s⁻¹; in experiment [6] it was 7600 M⁻¹ s⁻¹; in experiment [7] it was 8300 M⁻¹ s⁻¹; in experiment [8], 11000 M⁻¹ s⁻¹.

By Kd is commonly meant the concentration at which binding is half-saturated. As a reminder, the koff is the rate constant with which the complex falls apart. One may read the kon as a measure of how fast the partners come together.
